Measured values: paper PMC3794917

Tested on: Rad51
Assay: EM
Conditions: RPA pre-bound to ssDNA, no Rad52, 60 mM NaCl; all filaments complete; Rad52 EMSA: 10 mM Tris-HCl pH 8, 5 mM MgCl2, 100 mM NaCl, 37 C, 10 min, 0.27 uM XV2, 8% native PAGE; filament assays: SEB buffer, 60 mM NaCl (or titrated) …

Substance: 400-nt ssDNA fragment
- binding signal (% of Rad51 filaments formed): 12.5
